Results as given in PMC5487730, “Functional Role of Lanthanides in Enzymatic Activity and Transcriptional Regulation of Pyrroloquinoline Quinone-Dependent Alcohol Dehydrogenases in Pseudomonas putida KT2440” (mBio, 2017).

T1: PedH (Pseudomonas putida, UniProt Q88JH0)
T1 sequence (Q88JH0 28-595): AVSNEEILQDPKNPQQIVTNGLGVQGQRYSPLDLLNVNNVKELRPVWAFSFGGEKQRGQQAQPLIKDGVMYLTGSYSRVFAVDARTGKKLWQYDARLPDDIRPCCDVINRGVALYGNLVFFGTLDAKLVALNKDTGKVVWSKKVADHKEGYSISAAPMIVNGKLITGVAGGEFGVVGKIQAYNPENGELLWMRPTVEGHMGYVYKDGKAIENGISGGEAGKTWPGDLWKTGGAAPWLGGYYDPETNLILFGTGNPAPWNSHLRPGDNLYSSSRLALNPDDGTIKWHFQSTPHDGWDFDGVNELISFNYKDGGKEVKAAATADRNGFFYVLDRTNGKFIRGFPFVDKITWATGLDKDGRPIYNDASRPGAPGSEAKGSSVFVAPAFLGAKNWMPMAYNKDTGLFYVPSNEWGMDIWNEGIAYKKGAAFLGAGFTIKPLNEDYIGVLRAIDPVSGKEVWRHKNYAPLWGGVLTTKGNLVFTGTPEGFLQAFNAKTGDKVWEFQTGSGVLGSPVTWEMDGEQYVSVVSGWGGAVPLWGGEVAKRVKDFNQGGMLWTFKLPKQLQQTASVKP

T2: PedE (Pseudomonas putida, UniProt Q88JH5)
T2 sequence (Q88JH5 34-631): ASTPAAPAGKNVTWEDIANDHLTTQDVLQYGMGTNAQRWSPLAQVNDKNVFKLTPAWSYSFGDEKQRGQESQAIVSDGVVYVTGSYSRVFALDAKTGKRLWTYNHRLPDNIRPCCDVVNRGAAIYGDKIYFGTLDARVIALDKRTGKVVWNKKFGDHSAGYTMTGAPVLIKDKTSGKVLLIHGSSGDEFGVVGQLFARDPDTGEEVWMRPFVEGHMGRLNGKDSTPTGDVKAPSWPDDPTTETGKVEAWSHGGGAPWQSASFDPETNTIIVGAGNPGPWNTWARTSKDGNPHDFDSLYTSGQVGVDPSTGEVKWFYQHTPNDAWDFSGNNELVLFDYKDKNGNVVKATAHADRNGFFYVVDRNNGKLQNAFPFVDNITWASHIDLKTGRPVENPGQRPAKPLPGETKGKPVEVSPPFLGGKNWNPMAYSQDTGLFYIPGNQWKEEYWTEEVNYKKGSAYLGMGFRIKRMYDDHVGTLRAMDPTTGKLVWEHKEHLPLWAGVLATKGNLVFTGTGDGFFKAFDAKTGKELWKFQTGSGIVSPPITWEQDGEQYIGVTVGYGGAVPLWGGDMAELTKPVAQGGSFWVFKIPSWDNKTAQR

B1: PedH (Pseudomonas putida KT2440) (protein)
chain: T1 sequence (Q88JH0 28-595)

What was measured:
PedH = biological target: T1, PedH; assay: DCPIP/PMS dye-linked activity titrated with PQQ, one-site binding fit; type: biochemical; details: 10 mM ethanol, 1 µM PrCl3, 25 mM imidazole, 100 mM Tris HCl pH 8, 30°C preincubation
PedE = biological target: T2, PedE; assay: as above; type: biochemical; details: 10 mM ethanol, 1 mM CaCl2, 25 mM imidazole, 100 mM Tris HCl pH 8, 30°C preincubation
purified protein = substrate: CCO; assay: purified protein; details: 1 µM PrCl3, 1 µM PQQ, 25 mM imidazole, 500 µM PMS, 150 µM DCPIP, 100 mM Tris HCl pH 8, 30°C preincubation
[1] = substrate: CC=O; assay: DCPIP/PMS dye-linked colorimetric assay, Michaelis-Menten fit; type: biochemical, Pseudomonas putida; details: 1 µM PrCl3, 1 µM PQQ, 25 mM imidazole, 500 µM PMS, 150 µM DCPIP, 100 mM Tris HCl pH 8, 30°C preincubation
[2] = substrate: OCCc1ccccc1; assay: as above; type: biochemical, Pseudomonas putida; details: 1 µM PrCl3, 1 µM PQQ, 25 mM imidazole, 500 µM PMS, 150 µM DCPIP, 100 mM Tris HCl pH 8, 30°C preincubation

Row | Molecule | Kd (PedH) [nM] | Kd (PedE) [nM] | Km (purified protein) [µM] | Km [1] [µM] | Km [2] [µM]
1 | O=C(O)c1cc(C(=O)O)c2c(n1)C(=O)C(=O)c1cc(C(=O)O)[nH]c1-2 [PQQ] | 41 | 3500 | – | – | –
2 | B1 | – | – | 177 | 2261 ± 457 | 329 ± 22
